From patent US20240376455 come the findings set out here.

Common to all, as to assay: cleavage_in_vitro
In one data set the test system is T1, LPG10145 (undetermined).
T1 sequence: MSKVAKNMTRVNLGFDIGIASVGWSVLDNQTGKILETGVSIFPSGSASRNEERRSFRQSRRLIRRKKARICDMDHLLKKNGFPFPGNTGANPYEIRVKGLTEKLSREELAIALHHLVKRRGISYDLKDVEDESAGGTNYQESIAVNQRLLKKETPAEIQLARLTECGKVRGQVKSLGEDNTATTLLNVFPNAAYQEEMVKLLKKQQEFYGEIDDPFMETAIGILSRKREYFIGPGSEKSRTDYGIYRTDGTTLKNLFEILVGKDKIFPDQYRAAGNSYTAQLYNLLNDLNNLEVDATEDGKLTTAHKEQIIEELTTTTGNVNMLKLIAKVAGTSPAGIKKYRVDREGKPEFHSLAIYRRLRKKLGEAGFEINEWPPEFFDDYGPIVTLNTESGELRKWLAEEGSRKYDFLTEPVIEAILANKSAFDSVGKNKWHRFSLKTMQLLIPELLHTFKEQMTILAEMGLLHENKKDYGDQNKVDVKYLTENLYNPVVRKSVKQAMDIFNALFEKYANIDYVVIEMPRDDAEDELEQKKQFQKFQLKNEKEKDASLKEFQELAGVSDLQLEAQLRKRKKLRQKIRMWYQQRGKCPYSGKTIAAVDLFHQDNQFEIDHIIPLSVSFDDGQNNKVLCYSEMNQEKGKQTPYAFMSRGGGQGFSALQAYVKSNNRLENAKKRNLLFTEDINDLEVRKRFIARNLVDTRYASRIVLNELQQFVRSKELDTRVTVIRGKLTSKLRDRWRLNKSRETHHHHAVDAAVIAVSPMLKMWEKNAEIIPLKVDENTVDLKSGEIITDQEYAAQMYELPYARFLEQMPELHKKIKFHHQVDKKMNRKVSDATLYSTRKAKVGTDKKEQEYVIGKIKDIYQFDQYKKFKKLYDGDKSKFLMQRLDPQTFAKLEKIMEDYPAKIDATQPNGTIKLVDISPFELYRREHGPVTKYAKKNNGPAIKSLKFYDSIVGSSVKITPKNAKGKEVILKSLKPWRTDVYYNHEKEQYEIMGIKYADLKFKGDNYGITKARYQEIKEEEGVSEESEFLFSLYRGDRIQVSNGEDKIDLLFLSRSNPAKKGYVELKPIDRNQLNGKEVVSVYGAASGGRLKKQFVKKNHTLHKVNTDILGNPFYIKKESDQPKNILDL
Particulars: PAM NNGG; 37C 120 min.

For the next data set, the system named is T2, LPG10150 (undetermined).
T2 sequence: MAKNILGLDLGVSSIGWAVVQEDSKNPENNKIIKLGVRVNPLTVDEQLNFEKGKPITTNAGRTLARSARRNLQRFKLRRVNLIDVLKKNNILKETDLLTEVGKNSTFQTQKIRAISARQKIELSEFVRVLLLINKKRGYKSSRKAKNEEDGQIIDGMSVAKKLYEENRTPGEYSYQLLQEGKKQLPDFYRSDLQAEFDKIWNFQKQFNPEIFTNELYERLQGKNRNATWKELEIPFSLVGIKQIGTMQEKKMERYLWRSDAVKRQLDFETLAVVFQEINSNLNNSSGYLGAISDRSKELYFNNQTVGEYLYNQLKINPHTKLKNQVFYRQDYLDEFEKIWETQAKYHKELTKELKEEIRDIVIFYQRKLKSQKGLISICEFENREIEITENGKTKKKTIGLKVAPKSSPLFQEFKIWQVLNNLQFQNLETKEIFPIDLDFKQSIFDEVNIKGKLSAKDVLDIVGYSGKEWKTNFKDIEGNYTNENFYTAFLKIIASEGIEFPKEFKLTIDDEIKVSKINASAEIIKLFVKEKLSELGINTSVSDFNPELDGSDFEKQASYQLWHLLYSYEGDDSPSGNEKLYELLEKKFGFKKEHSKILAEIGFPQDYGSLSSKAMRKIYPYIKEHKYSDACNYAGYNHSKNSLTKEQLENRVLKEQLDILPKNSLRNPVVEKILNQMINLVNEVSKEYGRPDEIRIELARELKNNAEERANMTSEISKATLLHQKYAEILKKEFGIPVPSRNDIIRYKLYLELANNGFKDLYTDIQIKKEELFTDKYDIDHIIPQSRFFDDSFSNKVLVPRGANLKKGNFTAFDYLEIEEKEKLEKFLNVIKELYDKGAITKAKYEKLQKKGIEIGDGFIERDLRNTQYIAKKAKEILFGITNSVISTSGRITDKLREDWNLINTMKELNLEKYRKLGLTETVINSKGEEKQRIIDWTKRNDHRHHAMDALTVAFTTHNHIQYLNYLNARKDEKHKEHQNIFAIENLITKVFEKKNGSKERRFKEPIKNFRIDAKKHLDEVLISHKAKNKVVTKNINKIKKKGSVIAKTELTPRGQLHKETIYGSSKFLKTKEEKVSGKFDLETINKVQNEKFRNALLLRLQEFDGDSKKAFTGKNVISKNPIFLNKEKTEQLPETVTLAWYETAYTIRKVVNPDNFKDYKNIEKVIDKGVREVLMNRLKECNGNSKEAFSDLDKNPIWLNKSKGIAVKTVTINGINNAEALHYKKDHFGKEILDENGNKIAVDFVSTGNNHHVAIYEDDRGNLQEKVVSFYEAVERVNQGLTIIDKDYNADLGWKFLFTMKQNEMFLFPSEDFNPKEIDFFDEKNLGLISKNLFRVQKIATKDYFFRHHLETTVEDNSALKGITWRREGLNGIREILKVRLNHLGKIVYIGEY
Particulars: PAM SEQ ID 81.

The test system of data set [1] is T3, LPG10139 (Bacillus megaterium).
T3 sequence: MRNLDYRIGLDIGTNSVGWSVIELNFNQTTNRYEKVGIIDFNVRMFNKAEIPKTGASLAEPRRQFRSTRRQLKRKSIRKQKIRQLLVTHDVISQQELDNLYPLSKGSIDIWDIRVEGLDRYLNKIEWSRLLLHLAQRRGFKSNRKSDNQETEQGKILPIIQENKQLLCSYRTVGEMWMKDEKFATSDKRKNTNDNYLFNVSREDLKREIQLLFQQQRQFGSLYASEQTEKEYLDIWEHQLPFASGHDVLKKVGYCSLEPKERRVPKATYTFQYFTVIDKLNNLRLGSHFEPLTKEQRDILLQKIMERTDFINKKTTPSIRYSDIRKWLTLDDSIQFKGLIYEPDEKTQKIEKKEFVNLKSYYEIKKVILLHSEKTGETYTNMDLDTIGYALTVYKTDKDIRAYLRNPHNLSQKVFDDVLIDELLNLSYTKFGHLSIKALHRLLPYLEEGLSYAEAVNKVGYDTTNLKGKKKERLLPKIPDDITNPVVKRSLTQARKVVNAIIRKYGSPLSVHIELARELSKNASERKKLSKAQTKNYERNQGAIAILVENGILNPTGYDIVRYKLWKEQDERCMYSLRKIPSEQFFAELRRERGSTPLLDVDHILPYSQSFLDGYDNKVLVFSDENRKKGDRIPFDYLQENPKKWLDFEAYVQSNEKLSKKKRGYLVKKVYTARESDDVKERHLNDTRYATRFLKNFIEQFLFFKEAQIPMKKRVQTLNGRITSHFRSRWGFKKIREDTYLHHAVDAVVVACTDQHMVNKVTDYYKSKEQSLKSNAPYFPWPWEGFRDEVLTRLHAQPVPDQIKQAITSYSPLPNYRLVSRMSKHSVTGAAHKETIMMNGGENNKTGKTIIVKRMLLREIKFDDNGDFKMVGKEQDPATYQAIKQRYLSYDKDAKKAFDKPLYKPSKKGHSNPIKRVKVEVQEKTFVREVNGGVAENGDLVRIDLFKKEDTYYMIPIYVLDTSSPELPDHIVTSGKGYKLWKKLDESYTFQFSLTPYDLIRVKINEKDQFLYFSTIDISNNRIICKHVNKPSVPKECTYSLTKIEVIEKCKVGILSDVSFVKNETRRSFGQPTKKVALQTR
The conditions noted are these: PAM NNNNC.

In the data set with LPG10145 (undetermined), “GUUAUUGUACUCUCAAGGAAUCAGAAAGACUGAUUCCUUGAGAAUCUACAAUAAUAAGGCUUUAUGCCGAAAUUCCCACUCUUAACGGAGUGGGUUUU / GGACAGCAGCTTCCTATATCTCGTACACGGATTC / GAATCCGTGTACGAGATATAGGAAGCTGCTGTCC [LPG10145 sgRNA L1 ; Library 1 target ACGGATTC]” displayed an activity (% target strand cleaved) of 92.9.

For “GUUGUGAAUUGCUUUAAAGAAAGCAAUUCACAAUAAGGAUUAUUCCGUUGUGAAAACAUCUAGCGCCUCGUCUAUCUACGGGGCAUUUU / GATATAGACGTTGTGGCTGTTGTAGTAGGACTTC / GAAGTCCTACTACAACAGCCACAACGTCTATATC [LPG10150 sgRNA L2 ; Library 2 target AGGACTTC]”, in the data set with LPG10150 (undetermined), the activity (% target strand cleaved) worked out at 31.8.

In the data set with LPG10150 (undetermined), “GUUGUGAAUUGCUUUAAAGAAAGCAAUUCACAAUAAGGAUUAUUCCGUUGUGAAAACAUCUAGCGCCUCGUCUAUCUACGGGGCAUUUU / GGACAGCAGCTTCCTATATCTCGTACAGGACCTC / GAGGTCCTGTACGAGATATAGGAAGCTGCTGTCC [LPG10150 sgRNA L1 ; Library 1 target AGGACCTC]” returned an activity (% target strand cleaved) of 1.4.

Regarding “GUCAUAGUCCCAUCAUAUCCAUUGAAAGCAAUGGAUAUGAUGUUUCUAUGAUAAGGGCUCUCUAAGAGAGACCUGUGGCGUUGGGGAUCGCCUGCCCGUUUCGACGGGUGUCUCCCCAUUU / GATATAGACGTTGTGGCTGTTGTAGTAGGACCTC / GAGGTCCTACTACAACAGCCACAACGTCTATATC [LPG10139 sgRNA L2 ; Library 2 target AGGACCTC]”, the activity (% target strand cleaved) in data set [1] stood at 7.3.

Sequence “GUCAUAGUCCCAUCAUAUCCAUUGAAAGCAAUGGAUAUGAUGUUUCUAUGAUAAGGGCUCUCUAAGAGAGACCUGUGGCGUUGGGGAUCGCCUGCCCGUUUCGACGGGUGUCUCCCCAUUU / GGACAGCAGCTTCCTATATCTCGTACAGGACCTC / GAGGTCCTGTACGAGATATAGGAAGCTGCTGTCC [LPG10139 sgRNA L1 ; Library 1 target AGGACCTC]” yielded an activity (% target strand cleaved) in data set [1] of 4.4.

Turning to “GUUAUUGUACUCUCAAGGAAUCAGAAAGACUGAUUCCUUGAGAAUCUACAAUAAUAAGGCUUUAUGCCGAAAUUCCCACUCUUAACGGAGUGGGUUUU / GATATAGACGTTGTGGCTGTTGTAGTACGGATTC / GAATCCGTACTACAACAGCCACAACGTCTATATC [LPG10145 sgRNA L2 ; Library 2 target ACGGATTC]”, the activity (% target strand cleaved) in the data set with LPG10145 (undetermined) stood at 100.
